Results: patent US20220089784A1 (University of California, published 2022)

Legend:
Test in all cases: yeast scFv FACS
[1] = molecular target: BoNT/A1 holotoxin (Hall hyper) (Clostridium botulinum, UniProt P0DPI0 2-1296)
[2] = molecular target: BoNT/A light chain (recombinant) (Clostridium botulinum, UniProt P0DPI0 1-448)
[3] = molecular target: BoNT/A2 holotoxin (FRI-H1A2) (Clostridium botulinum, UniProt Q45894 2-1296)
Sequence of BoNT/A2 holotoxin (FRI-H1A2) (Q45894 2-1296): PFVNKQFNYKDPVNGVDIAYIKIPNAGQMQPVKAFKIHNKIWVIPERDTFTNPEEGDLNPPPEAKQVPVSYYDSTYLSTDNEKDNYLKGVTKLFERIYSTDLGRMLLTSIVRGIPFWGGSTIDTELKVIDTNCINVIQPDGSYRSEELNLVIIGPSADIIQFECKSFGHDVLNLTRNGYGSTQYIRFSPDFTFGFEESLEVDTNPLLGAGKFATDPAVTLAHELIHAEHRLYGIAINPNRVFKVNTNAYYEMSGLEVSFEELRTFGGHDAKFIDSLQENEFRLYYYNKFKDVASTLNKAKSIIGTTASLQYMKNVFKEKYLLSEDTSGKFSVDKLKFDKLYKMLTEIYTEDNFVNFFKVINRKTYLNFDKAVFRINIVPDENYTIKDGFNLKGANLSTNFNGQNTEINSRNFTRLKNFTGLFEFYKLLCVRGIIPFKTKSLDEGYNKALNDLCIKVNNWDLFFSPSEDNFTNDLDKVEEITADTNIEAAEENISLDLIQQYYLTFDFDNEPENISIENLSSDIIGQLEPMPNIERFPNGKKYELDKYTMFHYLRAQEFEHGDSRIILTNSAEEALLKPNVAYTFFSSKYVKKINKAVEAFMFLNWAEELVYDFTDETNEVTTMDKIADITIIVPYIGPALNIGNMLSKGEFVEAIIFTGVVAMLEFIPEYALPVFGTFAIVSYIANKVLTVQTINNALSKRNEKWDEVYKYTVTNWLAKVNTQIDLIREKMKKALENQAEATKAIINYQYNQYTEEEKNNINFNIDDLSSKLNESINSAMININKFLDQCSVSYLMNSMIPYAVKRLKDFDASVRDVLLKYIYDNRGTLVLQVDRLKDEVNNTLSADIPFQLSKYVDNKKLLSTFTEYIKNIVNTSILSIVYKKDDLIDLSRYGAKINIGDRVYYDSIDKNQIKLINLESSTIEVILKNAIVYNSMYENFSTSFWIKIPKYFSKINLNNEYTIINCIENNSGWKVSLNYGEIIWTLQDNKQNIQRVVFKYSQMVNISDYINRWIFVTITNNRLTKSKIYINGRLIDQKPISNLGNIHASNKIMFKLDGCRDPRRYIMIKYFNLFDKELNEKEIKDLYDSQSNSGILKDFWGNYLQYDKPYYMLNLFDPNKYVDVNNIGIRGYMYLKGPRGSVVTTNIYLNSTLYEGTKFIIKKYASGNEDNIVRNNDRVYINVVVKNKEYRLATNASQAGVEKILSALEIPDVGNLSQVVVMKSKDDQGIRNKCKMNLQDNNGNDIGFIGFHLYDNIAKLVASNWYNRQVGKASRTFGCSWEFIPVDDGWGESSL

B1: 1D2 scFv (scFv)
scFv: QVQLKESGAELMKPGASVKLSCKATGYTFTGYWIEWVKQRPGHGLEWIGEILPGSGSTNYNEKFKGKATFTADTSSNTAYMQLSSLTTEDSAIYYCASIYYGHDYWGQGTTLTVSSVDLKSGGSTSGSGKPGSGEGSSGSARDIVMTQSPKFMSTSVGDRVSVTCKASQNVGTNVAWYQQKPGQSPKALIYSASYRYSGVPDRFTGSGSGTDFTLTISNVQSEDLAEYFCQQYNSYPYTFGGGTKLEIK
notes: mouse
Q: What does the source list for B1?
A: binding result [1]: no binding; Kd [2]: 6.4 nM; binding result [3]: no binding

B2: 1H5 scFv (scFv)
scFv: EVQLQQSGAELVRPGTSVKLSCKASDYTFTNYWTHWVKQRPGQGLEWIGVIDPSDSYTNYNQKFKGKATLTVDTSSSTAYMQLSSLTSEDSAVYYCARGYYDTMDYWGQGTTVTVSSVDLKSGGSTSGSGKPGSGEGSSGSARDIVLTQSPASLAVSLGQRATISCRASESVDYDGDSYMNWYQQKPGQPPKLLIYAASNLESGIPARFSGSGSGTDFTLNIHPVEEEDAATYYCLQSNEAPWTFGGGTKLEIK
notes: mouse
Q: Does B2 bind [1]?
A: Result: no binding

Q: What about the Kd [2] of the same binder?
A: The Kd was 10.6 nM.

Q: Does B2 bind [3]?
A: Result: no binding

B3: 10B4 scFv (scFv)
scFv: QVQLKESGPGLVKPSQTVSLTCTVTGYSITNGNHWWNWIRQVSGSKLEWIGYISSSGYTDINPSLKSRISITRDTSKNQLFLQLNSVTTEDIATYYCARDDGYYEALDYWGQGTSVTVSSVDLKSGGSTSGSGKPGSGEGSSGSARDIVMSQSPAIMSASPGEKVTLTCSASSSVSSNYLYWYQQKPGSSPKLWIYSTSNLASGVPARFSGSGSGTSYSLTISRVEAEDAATYYCQQWSSNPPTFGGGTKLEIK
notes: mouse
Q: With B3 as the binder, how does the Kd [1] read?
A: The Kd was > 500 nM.

Q: What about the Kd [2] of the same binder?
A: The Kd was 1.53 nM.

Q: And the Kd [3]?
A: Its Kd is 252 nM.

B4: 1D9 scFv (scFv)
scFv: EVKLVESGGDLVKPGGSLKLSCAASGFTFSSYGMSWVRQTPDKRLEWVATISSGGSYTYYPDNVKGRFTISRDNAKNNLFLQMSHLKSEDTAMYYCARDWDYYYGSYWYFDVWGTGTSVTVSSVDLKSGGSTSGSGKPGSGEGSSGSARENVLTQSPAILSASPGEKVTMTCRASSSVSYMHWYQQKPGSSPRLLIYDTSNLASGVPVRFSGSGSGTSYSLTISRMEAEDAATYYCQQWSSYPYTFGGGTKLEIK
notes: mouse
Q: Does B4 bind [1]?
A: Result: no binding

Q: And the Kd [2]?
A: The Kd was 9.13 nM.

Q: Does B4 bind [3]?
A: Result: no binding

B5: 9B2 scFv (scFv)
scFv: QVQLQQSGAELVRPGASVKLSCTASGFNIEDDYMHWVKQRPEQGLEWIGRIDPANGNTEYAPKFQDKATITADTSSNTAYLQLSRLTSEDTAVYYCARGGWLGNYYAMDYWGQGTSVTVSSVDLKSGGSTSGSGKPGSGEGSSGSARDIVMTQTPLTLSVTIGQPASISCRSSQSLLHNYGNTYLHWYLQKPGQSPKLLIYKVSNRFSGVPDRFSGSGSGTDFTLKISRVEAEDLGVYFCSQGTHVPWTFGGGTKLEIK
notes: mouse
Q: Which results are given for B5?
A: Kd [1]: 232 nM; Kd [2]: 0.67 nM; Kd [3]: 154 nM

B6: 1C10 scFv (scFv)
scFv: QIQLLQPGTELVRPGTSVKLSCKASGYTFTNYWMHWVKQRPGQGLEWIGVIDPSDSYTNYNQKFKGKATLTVDTSSSTAYMQLSSLTFEDSAVYYCARYSGPYAMDYWGQGTTLTVSAVDLKSGGSTSGSGKPGSGEGSSGSAREIVLTQSPASLAVSLGQRATISCRACESVDYDGDSYMNWYQQKPGQPPKLLIYAASNLESGIPARFSGSGSGTDFTLNIHPVEEEDAATYYCLQSNEAPWTFGGGTKLEIK
notes: mouse
Q: Does B6 bind [1]?
A: Result: no binding

Q: What about the Kd [2] of the same binder?
A: The Kd was 4.85 nM.

Q: Does B6 bind [3]?
A: Result: no binding

B7: 10H10 scFv (scFv)
scFv: QVQLQQSGAELVRPGTSVKLSCKASGYTFTSYWMHWVKQRPGQGLEWIGVIDPSDSYTNYNQKFKGKATLTVDTSSSTAYMQLSSLTSEDSAVYYCARGGGRSSLDYWGQGTSVTVSSVDLKSGGSTSGSGKPGSGEGSSGSARDVVMTQTPASLAVSLGQRATISCKASQSVDYDGDSYMNWYQQKPGQPPKLLIYAASSLESGIPARFSGSGSGTDFTLNIHPVEEEDAATYYCQQSNEDPYTFGGGTKLEIK
notes: mouse
Q: Does B7 bind [1]?
A: Result: no binding

Q: And the Kd [2]?
A: The Kd was 11.1 nM.

Q: Does B7 bind [3]?
A: Result: no binding

B8: 10H11 scFv (scFv)
scFv: QIQLLQSGAELVKPGASVKLSCTASGFNIKDYYMHWVKQRPEQGLEWIGRIDPEDGDTEYAPKFQGKATMTADTSSNTAYLQLSSLTSEDSAVYFCARLNYDYPYWYFDVWGTGTTLTVSSVDLKSGGSTSGSGKPGSGEGSSGSARQIVLTQSPAIMSASPGEKVTMTCSASSSVSYMYWYQQKPGSSPRLLIYDTSNLASGVPVRFSGSGSGTSYSLTISRMEAEDAATYYCQQWSSYPLTFGAGTRLELK
notes: mouse
Q: What does the source list for B8?
A: binding result [1]: no binding; Kd [2]: 0.92 nM; binding result [3]: no binding

B9: 10C9 scFv (scFv)
scFv: QVQLQQSGAELVRPGTSVKLSCKASGYTFTSHWMHWVKQRPGQGLEWIGVIDPSDSYTNYNQKFKGKATLTVDTSSSTAYMQLSSLTSEDSAVYYCAIRRNYGMDYWGQGTSVTVSSVDLKSGGSTSGSGKPGSGEGSSGSARDIVMTQSPTSLAVSLGQRATISCKASQSVDYDGDSFMNWYQQKPGQPPKLLIYGASNLESGIPARFSGSGSRTDFTLTINPVEADDVATYYCQQSNEDPLTFGAGTKLELK
notes: mouse
Q: What does the source list for B9?
A: Kd [1]: > 500 nM; Kd [2]: 0.36 nM; Kd [3]: 112 nM

B10: ING2 scFv (scFv, V domains shown)
VH: QVQLVQSGAEVKKPGSSVKVSCKASGDTFNRNAIAWVRQAPGQGLEWMGRIIPNLRTTHYAQKFQGRVAITADKHTNTVFMELSSLRSEDTAVYYCARDPYYYSYMDVWGKGTTVTVSS
VL: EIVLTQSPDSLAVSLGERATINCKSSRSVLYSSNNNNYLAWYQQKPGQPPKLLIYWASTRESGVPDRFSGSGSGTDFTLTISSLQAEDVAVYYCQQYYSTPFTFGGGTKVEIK
Q: Which Kd [1] does the source give for B10 here?
A: The Kd was 0.11 nM.

Q: And the Kd [2]?
A: Its Kd is > 16.3 nM.

Q: And the Kd [3]?
A: Its Kd is 0.12 nM.

B11: 1D8 scFv (scFv)
scFv: EVQLQESGAELVRPGTSVKLSCKASGYTFTSYWMHWVKQRPGQGLEWIGVIDPSDSYTNYNQKFKGKATLTVDTSSSTAYMQLSSLTSEDSAVYYCARGSSGYVNYWGQGTTLTVSSVDLKSGGSTSGSGKPGSGEGSSGSARDIVMSQSPASLAVSLGQRATISCRASESVDYDGDSYMNWYQQKPGQPPKLLIYAASNLESGIPARFSGSGSGTDFTLNIHPVEEEDAATYYCLQSNEAPWTFGGGTKLEIK
notes: mouse
Q: Does B11 bind [1]?
A: Result: no binding

Q: What about the Kd [2] of the same binder?
A: The Kd was 3.35 nM.

Q: Does B11 bind [3]?
A: Result: no binding

B12: 12A11 scFv (scFv)
scFv: DVQLQESGPGLVKPSQSLSLTCSVTGYSITGGYYWNWIRQFPGNKLEWMGYISYDGSNNYNPSLKNRISITRDTSKNQFFLKLNSVTTEDTATYYCARNMGLWYFDVWGTGTPVTVSAVDLKSGGSTSGSGKPGSGEGSSGSARQIVLTQSPANLSASPGEKVTMTCSASSSVSYMHWYQQKPGSSPKPWIYATSNLASGVPARFSGSGSGTSYSLTISRMEAEDAATYYCQQWSSYPPMYTFGGGTKLELK
notes: mouse
Q: B12 was tested. Which Kd [1] did it give?
A: Its Kd is 0.66 nM.

Q: And the Kd [2]?
A: The Kd was 25.8 nM.

Q: What about the Kd [3] of the same binder?
A: The Kd was 2.08 nM.

B13: 7C8 scFv (scFv)
scFv: LQLKQSGPGLVKPSQSLSLTCSVTGYSITSGYYWYWIRQFPGNKLEWMGYISYDGSNNYNPSLKNRISITRDTSKNQFFLKLNSVTTEDTATYYCARNLGLWYFDVWGTGTPLTVSSVDLKSGGSTSGSGKPGSGEGSSGSAREIVLTQSPAILSASPGEKVTMTCRASSSVRYMHWYQQKPGSSPKPWIYATSNLASGVPARFSGSGSGTSYSLTISRVEAEDAATYYCQQWSGNAPTFGGGTKLEIK
notes: mouse
Q: Which results are given for B13?
A: Kd [1]: 0.73 nM; Kd [2]: 0.94 nM; Kd [3]: 0.45 nM

B14: 11D8 scFv (scFv)
scFv: EVQLQQSGAELVRPGTSVKLSCKASGYTFTSYWMHWVKQRPGQGLEWIGVIDPSDSYTNYNQKFKGKATLTVDTSSSTAYMQLSSLASEDSAVYYCARYPGNRAMDYWGQGTSVTVSSVDLKSGGSTSGSGKPGSGEGSSGSARDIVLTQSPASLAVSLGQRATISCRASESVDYDGDSYMNWYQQKPGQPPKLLIYAASNLESGIPARFSGSGSGTDFTLNIHPVEEEDAATYYCLQSNEAPWTFGGGTKLEIK
notes: mouse
Q: Does B14 bind [1]?
A: Result: no binding

Q: And the Kd [2]?
A: The Kd was 0.22 nM.

Q: Does B14 bind [3]?
A: Result: no binding

B15: 10B12 scFv (scFv)
scFv: EVQLQQSGAELVRPGTSVKLSCKSSGYTFTSDWMHWVIQRPGQGLEWIGVIDPSDSYTNYNQKFKGKATLTVDTSSSTAYMHLSSLTSEDSAVYYCARREGHYYGKAMDYWGQGTSVTVSSVDLKSGGSTSGSGKPGSGEGSSGSARDIVMSQSPASLAVSLGQRATISCRASESVDYDGDSYMNWYQQKPGQPPKLLIYAASNLESGIPARFSGSGSGTDFTLNIHPVEEEDAATYYCLQSNEAPWTFGGGTKLEIK
notes: mouse
Q: What does the source list for B15?
A: binding result [1]: no binding; Kd [2]: 0.53 nM; Kd [3]: 140 nM

B16: 10F9 scFv (scFv)
scFv: EVQLQQSGAELVKPGASVKLSCKASGYTFTSYWMHWIKQRPGQGLEWIGVIDPSDSYTNYNQKFKGKATLTVDTSSSTAYMQLSSLTSEDSAVYYCATGGNGFFDYWGQGTTLTVSSVDLKSGGSTSGSGKPGSGEGSSGSARDIVLTQSPASLAVSLGQRATISCRASESVDYDGDSYMNWYQQKPGQPPKLLIYAASNLESGIPARFSGSGSGTDFTLNIHPVEEEDAATYYCLQSNEAPWTFGGGTKLELK
notes: mouse
Q: B16 was tested. Which Kd [1] did it give?
A: The Kd was > 500 nM.

Q: And the Kd [2]?
A: The Kd was 0.09 nM.

Q: And the Kd [3]?
A: The Kd was > 500 nM.
